Assay results as given in article PMC8512817, “Domain Analysis and Motif Matcher (DAMM): A Program to Predict Selectivity Determinants in Monosiga brevicollis PDZ Domains Using Human PDZ Data” (Molecules, 2021).

Target: T1, DLG1-1 PDZ (DLG1 PDZ1, residues 220-317) (human, UniProt Q12959 220-317)
T1 construct: not shown: His tag, N-terminal, kept
Test: fluorescence polarisation
Conditions: both partners purified

T1 sequence (Q12959 220-317): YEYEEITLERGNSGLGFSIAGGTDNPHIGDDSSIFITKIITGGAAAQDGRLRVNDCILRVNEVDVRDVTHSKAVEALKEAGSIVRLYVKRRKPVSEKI

Row | Binder | Ki [µM]
1 | ESESKV [GIRK3 peptide (ESESKV)] | 350 ± 20
2 | ASESKV [B1AR peptide (ASESKV)] | 44 ± 23
3 | WDETNL [BPIX peptide (WDETNL)] | 460 ± 140
4 | QSESRL [A9UP44 peptide (QSESRL)] | 39 ± 25
5 | EDETAL [A9V7Z4 peptide (EDETAL)] | 460 ± 190
6 | QDETAL [A9UXE1 peptide (QDETAL)] | 190 ± 20
7 | QSSSEA [GAIP peptide (QSSSEA)] | 980 ± 180
8 | SSRTRRETQL [HPV16 E6 peptide (SSRTRRETQL)] | 23 ± 5
9 | PNQSVV [TYRP1 peptide (PNQSVV)] | 46 ± 21
